# Test results published in patent publication US20140212440A1.
# Like-named read-outs stand apart in the source and are kept apart here. Where no end group is shown, it is not given here. [ ]: non-standard residue; d: D form. The star is where a group is joined. Acetyl(2-(4-imidazolyl)) = O=C(Cc1c[nH]cn1)*
# How the values were obtained:
# Experiment in all cases: cell-based or functional assay
# [1] = molecular target: human glucagon receptor (human) (UniProt P47871)
# [2] = molecular target: human GLP-1 receptor (human) (UniProt P43220)
# Sequence of human GLP-1 receptor (human) (P43220 24-463): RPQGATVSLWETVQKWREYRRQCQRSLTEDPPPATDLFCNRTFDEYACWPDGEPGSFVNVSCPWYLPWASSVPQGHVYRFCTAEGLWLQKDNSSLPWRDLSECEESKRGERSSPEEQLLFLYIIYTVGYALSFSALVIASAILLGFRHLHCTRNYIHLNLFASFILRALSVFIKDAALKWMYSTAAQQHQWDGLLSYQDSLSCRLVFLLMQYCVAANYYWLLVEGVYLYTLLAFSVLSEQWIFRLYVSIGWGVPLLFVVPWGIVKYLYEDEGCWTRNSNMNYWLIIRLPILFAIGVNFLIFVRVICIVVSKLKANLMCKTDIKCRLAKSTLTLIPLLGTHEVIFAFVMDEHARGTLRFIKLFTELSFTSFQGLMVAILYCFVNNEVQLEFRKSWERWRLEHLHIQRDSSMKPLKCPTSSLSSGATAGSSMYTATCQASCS
# [3] = molecular target: human glucagon receptor (human) (UniProt P47871); remark: listed apart in the source
# Sequence of human glucagon receptor (human) (P47871 26-477): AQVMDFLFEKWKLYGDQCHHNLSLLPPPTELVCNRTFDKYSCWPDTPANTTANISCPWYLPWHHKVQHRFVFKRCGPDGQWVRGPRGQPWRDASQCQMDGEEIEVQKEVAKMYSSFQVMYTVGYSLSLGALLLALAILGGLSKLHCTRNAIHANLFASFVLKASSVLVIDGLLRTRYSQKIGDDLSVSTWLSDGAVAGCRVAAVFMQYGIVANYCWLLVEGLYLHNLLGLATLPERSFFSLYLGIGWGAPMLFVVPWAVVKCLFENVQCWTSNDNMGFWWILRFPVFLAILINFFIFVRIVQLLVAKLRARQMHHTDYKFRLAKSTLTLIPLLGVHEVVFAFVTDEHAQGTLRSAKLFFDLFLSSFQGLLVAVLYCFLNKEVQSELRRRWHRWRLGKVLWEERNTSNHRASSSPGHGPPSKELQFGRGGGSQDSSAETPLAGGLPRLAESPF
Molecule,"EC50 (nM), cAMP in CHO/GCGR [1]","EC50 (nM), cAMP in CHO/GLP-1R [2]","EC50 (nM), cAMP in CHO/GCGR [3]"
GLP-1 (from UniProt P01275 92-128) (ligand),> 1000 nM,–,–
[Acetyl(2-(4-imidazolyl))]SQGTFTSDLSRQLEEEAVRLFIEWLMNK [oxyntomodulin derivative (SEQ ID NO. 8)],–,420 nM,> 1000 nM
[Acetyl(2-(4-imidazolyl))]SQGTFTSDYSRYLDEEAVRLFIEWIRNGGPSSGAPPPSK [oxyntomodulin derivative (SEQ ID NO. 18)],–,96.3 nM,> 1000 nM
[Acetyl(2-(4-imidazolyl))]SQGTFTSDYSKYLDERRAQDFVAWLKNTGPSSGAPPPS [oxyntomodulin derivative (SEQ ID NO. 3)],–,> 1000 nM,638 nM
